The target of test [1] is N1 NA head domain from A/Michigan/45/2015 (H1N1), obtained from N1-MPP by thrombin cleavage (influenza A virus A/Michigan/45/2015 (H1N1)). Nature of the test: crystal structure; N1 head after thrombin removal of the MPP domain; sitting drop, 0.2 M calcium acetate, 20% PEG 3350, 20°C; 2.90 Å.
Test [2] addresses N1-MPP: recombinant N1 neuraminidase head domain of A/Michigan/45/2015 (H1N1) fused to the measles virus phosphoprotein tetramerization domain (measles virus | influenza A virus A/Michigan/45/2015 (H1N1)). Nature of the test: cross-linking.
The target of test [3] is N1-SPP: recombinant N1 neuraminidase head domain of A/Michigan/45/2015 (H1N1) fused to the Sendai virus phosphoprotein tetramerization domain (Sendai virus | influenza A virus A/Michigan/45/2015 (H1N1)). The experiment in a line: cross-linking.
Test [4] has as its target N1-VASP: recombinant N1 neuraminidase head domain of A/Michigan/45/2015 (H1N1) fused to the vasodilator-stimulated phosphoprotein tetramerization domain (human | influenza A virus A/Michigan/45/2015 (H1N1)). The experiment in a line: cross-linking.

Experimental findings from paper PMC8609353 are described below.

Take “N1 NA head domain from A/Michigan/45/2015 (H1N1), obtained from N1-MPP by thrombin cleavage (domain or fragment)”: the stoichiometry N in test [1] is 4.

As to “N1-MPP: recombinant N1 neuraminidase head domain of A/Michigan/45/2015 (H1N1) fused to the measles virus phosphoprotein tetramerization domain”, in test [2], the stoichiometry N amounted to 4.

Turning to “N1-SPP: recombinant N1 neuraminidase head domain of A/Michigan/45/2015 (H1N1) fused to the Sendai virus phosphoprotein tetramerization domain”, the stoichiometry N in test [3] is 4. Regarding “N1-VASP: recombinant N1 neuraminidase head domain of A/Michigan/45/2015 (H1N1) fused to the vasodilator-stimulated phosphoprotein tetramerization domain”, the stoichiometry N in test [4] came out at 4.

The stoichiometry N is a count of units in the complex or per binding partner.
